Laboratory results from the supplement of paper PMC9112550, “Optimization of the antimicrobial peptide Bac7 by deep mutational scanning” (BMC Biology, 2022).

Tested on: Escherichia coli TOP10
Assay: shrunken log2 fold change of peptide-encoding DNA abundance (4.5 h post-induction vs induction); higher = less antimicrobial activity (less host growth inhibition)
Conditions: time post-induction: 4.5 h; library: site-saturation at positions 5, 18, 19, 20
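Also: peptides expressed intracellularly from a pBAD plasmid library in pooled LB shake-flask culture, induced with 0.3% L-arabinose, DNA abundance read by NGS, three biological replicates, DESeq2 with apeglm shrinkage.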

| Sequence | shrunken log2 fold change |
| --- | --- |
| RRIRNRPPRLPRPRPRPHAFPRP | -0.0636 |
| RRIRARPPRLPRPRPRPWHNPRP | -0.0874 |
| RRIRMRPPRLPRPRPRPKCFPRP | 0.0196 |
| RRIRGRPPRLPRPRPRPAYWPRP | -0.0674 |
| RRIRVRPPRLPRPRPRPWCWPRP | -0.0537 |
| RRIRWRPPRLPRPRPRPLYCPRP | -0.22 |
| RRIRIRPPRLPRPRPRPWATPRP | 0.16 |
| RRIRQRPPRLPRPRPRPAIIPRP | -0.0528 |
| RRIRERPPRLPRPRPRPRIYPRP | -0.194 |
| RRIRWRPPRLPRPRPRPTWGPRP | 0.356 |
| RRIRFRPPRLPRPRPRPMFTPRP | -0.123 |
| RRIRCRPPRLPRPRPRPNAWPRP | -0.247 |
| RRIRDRPPRLPRPRPRPSCHPRP | -0.287 |
| RRIRQRPPRLPRPRPRPIMQPRP | -0.0377 |
| RRIRCRPPRLPRPRPRPAQFPRP | 0.0313 |
| RRIRARPPRLPRPRPRPERSPRP | 0.264 |
| RRIRTRPPRLPRPRPRPRPYPRP | -0.223 |
| RRIRGRPPRLPRPRPRPNLAPRP | 0.961 |
| RRIRSRPPRLPRPRPRPIAYPRP | -0.0673 |
| RRIRHRPPRLPRPRPRPLMKPRP | -0.581 |
| RRIRFRPPRLPRPRPRPAAHPRP | 0.333 |
| RRIRKRPPRLPRPRPRPECHPRP | -0.0136 |
| RRIRNRPPRLPRPRPRPDRHPRP | 0.0343 |
| RRIRWRPPRLPRPRPRPWDMPRP | -0.00946 |
| RRIRVRPPRLPRPRPRPATDPRP | 0.132 |

| Sequence | shrunken log2 fold change |
| --- | --- |
| RRIRMRPPRLPRPRPRPAMYPRP | 2.95 |
| RRIRTRPPRLPRPRPRPTFEPRP | -0.0371 |
| RRIRSRPPRLPRPRPRPHRFPRP | -0.301 |
| RRIRTRPPRLPRPRPRPQAGPRP | 0.107 |
| RRIRMRPPRLPRPRPRPCQSPRP | 0.288 |
| RRIRGRPPRLPRPRPRPGIEPRP | 0.118 |
| RRIRTRPPRLPRPRPRPCYVPRP | -0.89 |
| RRIRNRPPRLPRPRPRPNKYPRP | -0.774 |
| RRIRVRPPRLPRPRPRPIWDPRP | 0.0206 |
| RRIRLRPPRLPRPRPRPACIPRP | -0.0506 |
| RRIRARPPRLPRPRPRPPEDPRP | 0.308 |
| RRIRGRPPRLPRPRPRPISEPRP | 0.0792 |
| RRIRSRPPRLPRPRPRPMIAPRP | 0.0435 |
| RRIRLRPPRLPRPRPRPWIFPRP | -0.0453 |
| RRIRQRPPRLPRPRPRPKVKPRP | -0.223 |
| RRIRARPPRLPRPRPRPRIKPRP | -0.00918 |
| RRIRPRPPRLPRPRPRPRAYPRP | -0.13 |
| RRIRTRPPRLPRPRPRPGCWPRP | 0.453 |
| RRIRRRPPRLPRPRPRPHDRPRP | 0.103 |
| RRIRVRPPRLPRPRPRPSVNPRP | -0.291 |
| RRIRHRPPRLPRPRPRPMKQPRP | -0.0525 |
| RRIRFRPPRLPRPRPRPYCIPRP | -0.597 |
| RRIRHRPPRLPRPRPRPPAQPRP | 0.633 |
| RRIRPRPPRLPRPRPRPRNLPRP | 0.067 |
| RRIRHRPPRLPRPRPRPDLSPRP | -0.000678 |

| Sequence | shrunken log2 fold change |
| --- | --- |
| RRIRERPPRLPRPRPRPGLMPRP | -0.0269 |
| RRIRTRPPRLPRPRPRPTGGPRP | 0.164 |
| RRIRERPPRLPRPRPRPNTTPRP | 0.123 |
| RRIRNRPPRLPRPRPRPPDNPRP | -0.146 |
| RRIRGRPPRLPRPRPRPWSVPRP | -0.131 |
| RRIRIRPPRLPRPRPRPVTTPRP | -0.0229 |
| RRIRVRPPRLPRPRPRPKENPRP | 0.184 |
| RRIRWRPPRLPRPRPRPVPEPRP | 0.634 |
| RRIRTRPPRLPRPRPRPTCHPRP | -0.405 |
| RRIRGRPPRLPRPRPRPVDQPRP | 0.126 |
| RRIRARPPRLPRPRPRPWTDPRP | -0.0701 |
| RRIRERPPRLPRPRPRPVSCPRP | 0.182 |
| RRIRARPPRLPRPRPRPYCQPRP | -0.138 |
| RRIRARPPRLPRPRPRPPINPRP | -0.192 |
| RRIRTRPPRLPRPRPRPTCKPRP | -0.047 |
| RRIRLRPPRLPRPRPRPVMVPRP | -0.0863 |
| RRIRHRPPRLPRPRPRPHMLPRP | -0.0874 |
| RRIRLRPPRLPRPRPRPRLHPRP | -0.237 |
| RRIRFRPPRLPRPRPRPWIMPRP | -0.206 |
| RRIRCRPPRLPRPRPRPQSVPRP | -0.125 |
| RRIRDRPPRLPRPRPRPAKNPRP | -0.119 |
| RRIRHRPPRLPRPRPRPLKMPRP | -0.182 |
| RRIRCRPPRLPRPRPRPRHFPRP | -0.374 |
| RRIRPRPPRLPRPRPRPWWGPRP | -0.0751 |
| RRIRRRPPRLPRPRPRPIKKPRP | 0.907 |

| Sequence | shrunken log2 fold change |
| --- | --- |
| RRIRARPPRLPRPRPRPTSVPRP | 0.52 |
| RRIRLRPPRLPRPRPRPIVAPRP | -0.0323 |
| RRIRYRPPRLPRPRPRPWRNPRP | -0.00674 |
| RRIRERPPRLPRPRPRPECCPRP | 0.066 |
| RRIRYRPPRLPRPRPRPCYEPRP | -0.246 |
| RRIRHRPPRLPRPRPRPCRMPRP | 0.0591 |
| RRIRKRPPRLPRPRPRPMDVPRP | 0.0608 |
| RRIRNRPPRLPRPRPRPHYYPRP | -0.356 |
| RRIRYRPPRLPRPRPRPLNGPRP | -0.159 |
| RRIRDRPPRLPRPRPRPEYAPRP | 0.815 |
| RRIRFRPPRLPRPRPRPQTKPRP | -0.142 |
| RRIRPRPPRLPRPRPRPLKMPRP | -0.124 |
| RRIRWRPPRLPRPRPRPTKEPRP | 0.177 |
| RRIRTRPPRLPRPRPRPQDCPRP | 0.0249 |
| RRIRDRPPRLPRPRPRPAEVPRP | 0.46 |
| RRIRMRPPRLPRPRPRPFTGPRP | 0.0078 |
| RRIRARPPRLPRPRPRPNMPPRP | -0.0377 |
| RRIRERPPRLPRPRPRPHGQPRP | -0.0165 |
| RRIRHRPPRLPRPRPRPANYPRP | -0.00316 |
| RRIRLRPPRLPRPRPRPQIIPRP | 0.0457 |
| RRIRCRPPRLPRPRPRPHSNPRP | -0.625 |
| RRIRSRPPRLPRPRPRPNRWPRP | -0.0554 |
| RRIRERPPRLPRPRPRPHDKPRP | -0.784 |
| RRIRGRPPRLPRPRPRPHTHPRP | 0.0537 |
| RRIRTRPPRLPRPRPRPYVGPRP | -0.689 |

| Sequence | shrunken log2 fold change |
| --- | --- |
| RRIRERPPRLPRPRPRPKWIPRP | -0.54 |
| RRIRHRPPRLPRPRPRPPTSPRP | -0.128 |
| RRIRTRPPRLPRPRPRPRDTPRP | -0.0276 |
| RRIRKRPPRLPRPRPRPCIDPRP | -0.0418 |
| RRIRWRPPRLPRPRPRPKCRPRP | 0.294 |
| RRIRSRPPRLPRPRPRPQYPPRP | -0.157 |
| RRIRKRPPRLPRPRPRPYMLPRP | -0.579 |
| RRIRVRPPRLPRPRPRPCLEPRP | 0.0452 |
| RRIRMRPPRLPRPRPRPIGCPRP | 0.176 |
| RRIRDRPPRLPRPRPRPFREPRP | -0.376 |
| RRIRLRPPRLPRPRPRPDSLPRP | -0.335 |
| RRIRCRPPRLPRPRPRPPVTPRP | 0.0706 |
| RRIRFRPPRLPRPRPRPPCCPRP | 0.0896 |
| RRIRKRPPRLPRPRPRPMPAPRP | 0.15 |
| RRIRFRPPRLPRPRPRPNQQPRP | -0.0474 |
| RRIRGRPPRLPRPRPRPNIKPRP | 0.136 |
| RRIRLRPPRLPRPRPRPPFDPRP | 0.312 |
| RRIRFRPPRLPRPRPRPFCWPRP | 0.4 |
| RRIRERPPRLPRPRPRPHCGPRP | -0.333 |
| RRIRQRPPRLPRPRPRPKRKPRP | 0.684 |
| RRIRKRPPRLPRPRPRPIMVPRP | 0.248 |
| RRIRRRPPRLPRPRPRPCKSPRP | 0.263 |
| RRIRQRPPRLPRPRPRPFFVPRP | -0.0254 |
| RRIRFRPPRLPRPRPRPYRSPRP | -0.975 |
| RRIRYRPPRLPRPRPRPAIPPRP | -0.66 |

| Sequence | shrunken log2 fold change |
| --- | --- |
| RRIRIRPPRLPRPRPRPECQPRP | -0.00158 |
| RRIRTRPPRLPRPRPRPPGQPRP | 0.622 |
| RRIRKRPPRLPRPRPRPSNCPRP | -0.309 |
| RRIRMRPPRLPRPRPRPSTFPRP | 0.147 |
| RRIRPRPPRLPRPRPRPFDEPRP | -0.0622 |
| RRIRMRPPRLPRPRPRPGFIPRP | 0.192 |
| RRIRFRPPRLPRPRPRPEGSPRP | -0.134 |
| RRIRFRPPRLPRPRPRPNPFPRP | 0.0605 |
| RRIRCRPPRLPRPRPRPRYAPRP | -0.229 |
| RRIRARPPRLPRPRPRPRMKPRP | 0.457 |
| RRIRSRPPRLPRPRPRPFDFPRP | -0.241 |
| RRIRTRPPRLPRPRPRPEYCPRP | -0.189 |
| RRIRMRPPRLPRPRPRPLTGPRP | 0.0753 |
| RRIRWRPPRLPRPRPRPPWHPRP | 0.134 |
| RRIRNRPPRLPRPRPRPPRFPRP | 0.441 |
| RRIRCRPPRLPRPRPRPTHWPRP | 0.546 |
| RRIRHRPPRLPRPRPRPIVMPRP | -0.012 |
| RRIRARPPRLPRPRPRPCFVPRP | -0.0979 |
| RRIRDRPPRLPRPRPRPISHPRP | 0.0261 |
| RRIRYRPPRLPRPRPRPFGCPRP | -0.139 |
| RRIRVRPPRLPRPRPRPGAFPRP | 0.0224 |
| RRIRDRPPRLPRPRPRPGAWPRP | 4.01 |
| RRIRVRPPRLPRPRPRPFDVPRP | -0.0208 |
| RRIRVRPPRLPRPRPRPMCNPRP | -0.263 |
| RRIRPRPPRLPRPRPRPQHDPRP | -0.176 |
